Assay results as given in patent US8097254.
Blank lines part the entries; values can stand above or below the molecule they belong to.

Legend:
hen egg lysozyme (hen) = hen egg lysozyme (hen) (UniProt P00698); test: 125I-labelled (Iodogen) scFv loaded on antigen column, counting of flow-through and eluate
[1] = target: T1, recombinant ED-B domain of fibronectin (UniProt P02751 1266-1356, biotinylated (biotin disulfide N-hydroxysuccinimide ester) in ELISA and ECL competition; Cy5 at the N-terminal extremity in the band-shift analysis); test: SPR (BIAcore), purified scFv
T1 construct: domain: ED-B; Recombinant fragment made as in Carnemolla et al. 1996; also called biotinylated ED-B; ED-B-biotin

[2] = target: T1, recombinant ED-B domain of fibronectin; test: SPR (BIAcore)
[3] = target: T1, recombinant ED-B domain of fibronectin; test: competition of scFv-(ED-B-biotin) complex with excess unbiotinylated ED-B, electrochemiluminescent detection (Origen)
[4] = target: T1, recombinant ED-B domain of fibronectin; test: Kd = koff/kon, koff from ECL competition, kon from BIAcore

T1 sequence (P02751 1266-1356 limits assumed): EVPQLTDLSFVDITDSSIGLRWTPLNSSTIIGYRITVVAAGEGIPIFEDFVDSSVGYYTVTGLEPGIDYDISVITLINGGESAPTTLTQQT
hen egg lysozyme (hen), sequence (P00698 19-147): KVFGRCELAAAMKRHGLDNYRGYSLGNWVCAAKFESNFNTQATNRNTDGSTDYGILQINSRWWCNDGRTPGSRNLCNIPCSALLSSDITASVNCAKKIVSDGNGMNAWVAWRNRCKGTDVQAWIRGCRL

immunoreactivity (hen egg lysozyme (hen)): > 80%
Molecule: scFv(D1.3)

kon [1]: 110000 M⁻¹ s⁻¹ | koff [2]: 9.6e-05 s⁻¹ | koff [3]: 6e-06 s⁻¹ | Kd [4]: 0.054 nM
B1: scFv L19 (high-affinity anti-ED-B human scFv antibody fragment) (scFv)
chain: EVQLLESGGGLVQPGGSLRLSCAASGFTFSSFSMSWVRQAPGKGLEWVSSISGSSGTTYYADSVKGRFTISRDNSKNTLYLQMNSLRAEDTAVYYCAKPFPYFDYWGQGTLVTVSSGDGSSGGSGGASTGEIVLTQSPGTLSLSPGERATLSCRASQSVSSSYLAWYQQKPGQAPRLLIYYASSRATGIPDRFSGSGSGTDFTLTISRLEPEDFAVYYCQQTGRIPPTFGQGTKVEIKDDDSDDDYKDDDDKHHHHHH
modifications: in some assays labelled: iodine-125 (Iodogen, or via N-succinimidyl-3-(125I)-benzoate), astatine-211 via m-MeATE, Cy5-NHS, tin (IV) chlorin e6
